Results from IntAct's records for PubMed 31515488.

B1: 2'-5'-oligoadenylate synthase 1 (Homo sapiens), P00973 (parent)
chain: MMDLRNTPAKSLDKFIEDYLLPDTCFRMQINHAIDIICGFLKERCFRGSSYPVCVSKVVKGGSSGKGTTLRGRSDADLVVFLSPLTTFQDQLNRRGEFIQEIRRQLEACQRERAFSVKFEVQAPRWGNPRALSFVLSSLQLGEGVEFDVLPAFDALGQLTGGYKPNPQIYVKLIEECTDLQKEGEFSTCFTELQRDFLKQRPTKLKSLIRLVKHWYQNCKKKLGKLPPQYALELLTVYAWERGSMKTHFNTAQGFRTVLELVINYQQLCIYWTKYYDFKNPIIEKYLRRQLTKPRPVILDPADPTGNLGGGDPKGWRQLAQEAEAWLNYPCFKNWDGSPVSSWILLAESNSADDETDDPRRYQKYGYIGTHEYPHFSHRPSTLQAASTPQAEEDWTCTIL
partner: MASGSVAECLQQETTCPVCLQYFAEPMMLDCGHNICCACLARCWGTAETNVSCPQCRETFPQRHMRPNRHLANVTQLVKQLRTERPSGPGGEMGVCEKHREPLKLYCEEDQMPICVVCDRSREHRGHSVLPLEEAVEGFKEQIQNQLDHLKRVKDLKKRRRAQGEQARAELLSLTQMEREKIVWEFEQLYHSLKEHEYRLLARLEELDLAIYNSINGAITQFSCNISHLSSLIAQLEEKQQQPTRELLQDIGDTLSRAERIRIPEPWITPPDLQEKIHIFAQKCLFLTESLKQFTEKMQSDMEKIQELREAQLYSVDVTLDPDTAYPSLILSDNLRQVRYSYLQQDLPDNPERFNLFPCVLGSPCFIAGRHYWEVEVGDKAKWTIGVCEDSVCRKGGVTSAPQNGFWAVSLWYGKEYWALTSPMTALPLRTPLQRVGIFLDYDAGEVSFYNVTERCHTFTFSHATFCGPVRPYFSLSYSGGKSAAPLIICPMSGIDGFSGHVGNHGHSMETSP
B2: Protein LDOC1 (Homo sapiens), O95751 (parent)
chain: MVDELVLLLHALLMRHRALSIENSQLMEQLRLLVCERASLLRQVRPPSCPVPFPETFNGESSRLPEFIVQTASYMLVNENRFCNDAMKVAFLISLLTGEAEEWVVPYIEMDSPILGDYRAFLDEMKQCFGWDDDEDDDDEEEEDDY
B3: Forkhead box protein P3 (Homo sapiens), Q9BZS1 (parent)
chain: MPNPRPGKPSAPSLALGPSPGASPSWRAAPKASDLLGARGPGGTFQGRDLRGGAHASSSSLNPMPPSQLQLPTLPLVMVAPSGARLGPLPHLQALLQDRPHFMHQLSTVDAHARTPVLQVHPLESPAMISLTPPTTATGVFSLKARPGLPPGINVASLEWVSREPALLCTFPNPSAPRKDSTLSAVPQSSYPLLANGVCKWPGCEKVFEEPEDFLKHCQADHLLDEKGRAQCLLQREMVQSLEQQLVLEKEKLSAMQAHLAGKMALTKASSVASSDKGSCCIVAAGSQGPVVPAWSGPREAPDSLFAVRRHLWGSHGNSTFPEFLHNMDYFKFHNMRPPFTYATLIRWAILEAPEKQRTLNEIYHWFTRMFAFFRNHPATWKNAIRHNLSLHKCFVRVESEKGAVWTVDELEFRKKRSQRPSRCSNPTPGP
B4: E3 ubiquitin-protein ligase SH3RF2 (Homo sapiens), Q8TEC5 (parent)
chain: MDDLTLLDLLECPVCFEKLDVTAKVLPCQHTFCKPCLQRVFKAHKELRCPECRTPVFSNIEALPANLLLVRLLDGVRSGQSSGRGGSFRRPGTMTLQDGRKSRTNPRRLQASPFRLVPNVRIHMDGVPRAKALCNYRGQNPGDLRFNKGDIILLRRQLDENWYQGEINGISGNFPASSVEVIKQLPQPPPLCRALYNFDLRGKDKSENQDCLTFLKDDIITVISRVDENWAEGKLGDKVGIFPILFVEPNLTARHLLEKNKGRQSSRTKNLSLVSSSSRGNTSTLRRGPGSRRKVPGQFSITTALNTLNRMVHSPSGRHMVEISTPVLISSSNPSVITQPMEKADVPSSCVGQVSTYHPAPVSPGHSTAVVSLPGSQQHLSANMFVALHSYSAHGPDELDLQKGEGVRVLGKCQDGWLRGVSLVTGRVGIFPNNYVIPIFRKTSSFPDSRSPGLYTTWTLSTSSVSSQGSISEGDPRQSRPFKSVFVPTAIVNPVRSTAGPGTLGQGSLRKGRSSMRKNGSLQRPLQSGIPTLVVGSLRRSPTMVLRPQQFQFYQPQGIPSSPSAVVVEMGSKPALTGEPALTCISRGSEAWIHSAASSLIMEDKEIPIKSEPLPKPPASAPPSILVKPENSRNGIEKQVKTVRFQNYSPPPTKHYTSHPTSGKPEQPATLKASQPEAASLGPEMTVLFAHRSGCHSGQQTDLRRKSALGKATTLVSTASGTQTVFPSK
B5: Isoform 1 of Myotubularin-related protein 9 (Homo sapiens), Q96QG7-1 (parent)
chain: MEFAELIKTPRVDNVVLHRPFYPAVEGTLCLTGHHLILSSRQDNTEELWLLHSNIDAIDKRFVGSLGTIIIKCKDFRIIQLDIPGMEECLNIASSIEALSTLDSITLMYPFFYRPMFEVIEDGWHSFLPEQEFELYSSATSEWRLSYVNKEFAVCPSYPPIVTVPKSIDDEALRKVATFRHGGRFPVLSYYHKKNGMVIMRSGQPLTGTNGRRCKEDEKLINATLRAGKRGYIIDTRSLNVAQQTRAKGGGFEQEAHYPQWRRIHKSIERYHILQESLIKLVEACNDQTHNMDRWLSKLEASNWLTHIKEILTTACLAAQCIDREGASILIHGTEGTDSTLQVTSLAQIILEPRSRTIRGFEALIEREWLQAGHPFQQRCAQSAYCNTKQKWEAPVFLLFLDCVWQILRQFPCSFEFNENFLIMLFEHAYASQFGTFLGNNESERCKLKLQQKTMSLWSWVNQPSELSKFTNPLFEANNLVIWPSVAPQSLPLWEGIFLRWNRSSKYLDEAYEEMVNIIEYNKELQAKVNILRRQLAELETEDGMQESP

Variants of: B1
Conditions: with tri27_human TRIM27, P14373
For L327P, the “effect of a mutation on the interaction” value was “disrupting interaction strength”.

Variants of: B2
Conditions: with ch033_human C8orf33, Q9H7E9
ch033_human C8orf33, Q9H7E9, sequence (Q9H7E9 whole entry): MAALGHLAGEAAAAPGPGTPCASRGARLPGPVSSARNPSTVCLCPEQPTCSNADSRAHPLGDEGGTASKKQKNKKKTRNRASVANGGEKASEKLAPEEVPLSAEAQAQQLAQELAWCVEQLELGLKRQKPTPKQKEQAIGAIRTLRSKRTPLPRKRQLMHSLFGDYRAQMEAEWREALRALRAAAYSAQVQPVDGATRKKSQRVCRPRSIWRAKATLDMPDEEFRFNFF
For L12H, the “effect of a mutation on the interaction” value was “with no effect”.

Variants of: B2
Conditions: with KRT15, P19012
KRT15, P19012, sequence (P19012 whole entry): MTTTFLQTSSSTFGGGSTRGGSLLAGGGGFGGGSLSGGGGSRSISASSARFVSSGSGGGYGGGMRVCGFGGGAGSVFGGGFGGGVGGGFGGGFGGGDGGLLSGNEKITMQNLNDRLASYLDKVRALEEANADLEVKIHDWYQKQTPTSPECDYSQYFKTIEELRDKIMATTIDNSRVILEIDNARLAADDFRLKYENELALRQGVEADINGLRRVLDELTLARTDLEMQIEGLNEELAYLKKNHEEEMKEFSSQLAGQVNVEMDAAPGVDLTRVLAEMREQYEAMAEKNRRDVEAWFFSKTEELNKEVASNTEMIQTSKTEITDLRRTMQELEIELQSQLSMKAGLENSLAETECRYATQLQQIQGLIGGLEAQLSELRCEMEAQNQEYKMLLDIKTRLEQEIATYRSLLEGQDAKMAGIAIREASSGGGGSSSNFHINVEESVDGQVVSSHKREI
For L12H, the “effect of a mutation on the interaction” value was “with no effect”.

Variants of: B2
Conditions: with atf4_human ATF4, P18848
atf4_human ATF4, P18848, sequence (P18848 whole entry): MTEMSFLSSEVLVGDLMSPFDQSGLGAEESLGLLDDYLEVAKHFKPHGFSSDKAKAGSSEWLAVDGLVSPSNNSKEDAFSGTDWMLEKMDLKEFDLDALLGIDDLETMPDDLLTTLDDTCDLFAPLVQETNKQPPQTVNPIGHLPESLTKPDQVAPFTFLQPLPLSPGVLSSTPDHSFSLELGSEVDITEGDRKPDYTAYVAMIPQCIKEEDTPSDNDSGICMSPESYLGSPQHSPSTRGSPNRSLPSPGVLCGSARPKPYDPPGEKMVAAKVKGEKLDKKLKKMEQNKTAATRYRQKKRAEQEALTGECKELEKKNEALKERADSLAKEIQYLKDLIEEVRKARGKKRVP
In the case of L12H, the “effect of a mutation on the interaction” value is reported as “with no effect”.

Variants of: B2
Conditions: with bard1_human BARD1, Q99728
In the case of L12H, the “effect of a mutation on the interaction” value is reported as “disrupting interaction strength”.

Variants of: B2
Conditions: with prp31_human PRPF31, Q8WWY3
In the case of L12H, the “effect of a mutation on the interaction” value is reported as “disrupting interaction strength”.

Variants of: B2
Conditions: with prc1_human PRC1, O43663
For L12H, the “effect of a mutation on the interaction” value was “disrupting interaction strength”.

Variants of: B2
Conditions: with zbt24_human ZBTB24, O43167
zbt24_human ZBTB24, O43167, sequence (O43167 whole entry): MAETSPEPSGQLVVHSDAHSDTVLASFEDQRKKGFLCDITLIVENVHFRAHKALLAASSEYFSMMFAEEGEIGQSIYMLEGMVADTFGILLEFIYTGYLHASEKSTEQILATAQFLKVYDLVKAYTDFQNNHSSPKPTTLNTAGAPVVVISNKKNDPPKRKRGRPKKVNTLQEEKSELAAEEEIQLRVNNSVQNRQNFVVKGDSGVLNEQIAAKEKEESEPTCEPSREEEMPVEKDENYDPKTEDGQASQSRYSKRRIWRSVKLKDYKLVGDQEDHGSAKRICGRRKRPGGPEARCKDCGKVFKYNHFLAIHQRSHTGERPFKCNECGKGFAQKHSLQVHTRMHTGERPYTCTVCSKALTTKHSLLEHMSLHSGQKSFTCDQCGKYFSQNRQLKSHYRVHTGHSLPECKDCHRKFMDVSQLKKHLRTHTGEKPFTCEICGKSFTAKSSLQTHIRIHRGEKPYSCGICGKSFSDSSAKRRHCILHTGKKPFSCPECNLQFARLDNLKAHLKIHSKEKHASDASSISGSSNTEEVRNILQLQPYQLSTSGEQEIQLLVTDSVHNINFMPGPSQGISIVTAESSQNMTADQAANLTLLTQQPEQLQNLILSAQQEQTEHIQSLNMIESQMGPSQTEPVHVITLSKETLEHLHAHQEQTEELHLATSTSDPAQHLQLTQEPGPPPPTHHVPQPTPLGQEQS
For L12H, the “effect of a mutation on the interaction” value was “disrupting interaction strength”.

Variants of: B2
Conditions: with vatg1_human ATP6V1G1, O75348
vatg1_human ATP6V1G1, O75348, sequence (O75348 whole entry): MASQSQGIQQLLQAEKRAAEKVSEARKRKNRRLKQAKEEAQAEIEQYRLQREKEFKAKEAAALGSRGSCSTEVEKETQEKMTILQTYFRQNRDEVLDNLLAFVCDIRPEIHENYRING
For L12H, the “effect of a mutation on the interaction” value was “disrupting interaction strength”.

Variants of: B2
Conditions: with exoc7_human EXOC7, Q9UPT5
exoc7_human EXOC7, Q9UPT5, sequence (Q9UPT5 whole entry): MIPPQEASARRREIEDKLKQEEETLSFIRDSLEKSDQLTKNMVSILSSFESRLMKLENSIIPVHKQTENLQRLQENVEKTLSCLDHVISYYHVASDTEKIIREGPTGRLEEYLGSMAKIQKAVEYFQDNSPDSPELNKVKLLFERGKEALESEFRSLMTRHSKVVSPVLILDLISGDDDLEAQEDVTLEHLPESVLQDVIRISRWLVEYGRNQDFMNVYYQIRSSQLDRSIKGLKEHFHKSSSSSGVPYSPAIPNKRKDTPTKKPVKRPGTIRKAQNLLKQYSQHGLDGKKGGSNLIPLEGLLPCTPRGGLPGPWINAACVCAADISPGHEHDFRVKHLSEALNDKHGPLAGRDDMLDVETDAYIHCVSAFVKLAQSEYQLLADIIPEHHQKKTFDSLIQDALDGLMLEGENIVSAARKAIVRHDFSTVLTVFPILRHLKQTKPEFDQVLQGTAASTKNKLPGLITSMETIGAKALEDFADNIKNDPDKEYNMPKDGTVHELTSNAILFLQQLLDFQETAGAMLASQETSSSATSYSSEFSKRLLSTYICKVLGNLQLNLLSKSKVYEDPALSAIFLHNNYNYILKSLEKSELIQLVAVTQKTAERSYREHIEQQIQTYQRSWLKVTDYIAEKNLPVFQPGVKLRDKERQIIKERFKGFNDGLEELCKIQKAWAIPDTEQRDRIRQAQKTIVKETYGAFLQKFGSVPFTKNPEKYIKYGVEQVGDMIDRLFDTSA
L12H was tested, and the “effect of a mutation on the interaction” value was “disrupting interaction strength”.

Variants of: B2
Conditions: with tha10_human THAP10, Q9P2Z0
tha10_human THAP10, Q9P2Z0, sequence (Q9P2Z0 whole entry): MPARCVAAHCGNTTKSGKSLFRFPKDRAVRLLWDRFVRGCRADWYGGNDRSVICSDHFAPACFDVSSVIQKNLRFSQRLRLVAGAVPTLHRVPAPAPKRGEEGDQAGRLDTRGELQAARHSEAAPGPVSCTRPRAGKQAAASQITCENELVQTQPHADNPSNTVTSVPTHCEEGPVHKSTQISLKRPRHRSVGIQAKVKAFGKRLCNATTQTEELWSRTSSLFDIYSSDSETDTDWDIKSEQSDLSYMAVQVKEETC
In the case of L12H, the “effect of a mutation on the interaction” value is reported as “disrupting interaction strength”.

Variants of: B2
Conditions: with zn250_human ZNF250, P15622
zn250_human ZNF250, P15622, sequence (P15622 whole entry): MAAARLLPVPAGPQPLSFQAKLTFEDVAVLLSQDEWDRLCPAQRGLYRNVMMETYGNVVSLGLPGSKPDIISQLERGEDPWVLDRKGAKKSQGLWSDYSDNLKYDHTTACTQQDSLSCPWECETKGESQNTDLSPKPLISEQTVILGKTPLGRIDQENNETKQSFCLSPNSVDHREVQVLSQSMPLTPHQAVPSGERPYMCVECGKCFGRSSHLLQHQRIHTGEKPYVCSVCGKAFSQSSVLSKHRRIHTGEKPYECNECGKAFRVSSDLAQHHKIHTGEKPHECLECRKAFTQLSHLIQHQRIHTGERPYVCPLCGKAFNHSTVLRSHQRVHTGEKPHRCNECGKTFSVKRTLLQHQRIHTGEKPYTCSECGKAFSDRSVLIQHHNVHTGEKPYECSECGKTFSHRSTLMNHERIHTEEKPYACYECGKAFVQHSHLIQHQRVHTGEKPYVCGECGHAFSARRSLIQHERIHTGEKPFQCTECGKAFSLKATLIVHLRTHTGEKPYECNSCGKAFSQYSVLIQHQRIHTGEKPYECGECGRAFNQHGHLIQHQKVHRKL
L12H was tested, and the “effect of a mutation on the interaction” value was “disrupting interaction strength”.

Variants of: B2
Conditions: with smrd1_human SMARCD1, Q96GM5
smrd1_human SMARCD1, Q96GM5, sequence (Q96GM5 whole entry): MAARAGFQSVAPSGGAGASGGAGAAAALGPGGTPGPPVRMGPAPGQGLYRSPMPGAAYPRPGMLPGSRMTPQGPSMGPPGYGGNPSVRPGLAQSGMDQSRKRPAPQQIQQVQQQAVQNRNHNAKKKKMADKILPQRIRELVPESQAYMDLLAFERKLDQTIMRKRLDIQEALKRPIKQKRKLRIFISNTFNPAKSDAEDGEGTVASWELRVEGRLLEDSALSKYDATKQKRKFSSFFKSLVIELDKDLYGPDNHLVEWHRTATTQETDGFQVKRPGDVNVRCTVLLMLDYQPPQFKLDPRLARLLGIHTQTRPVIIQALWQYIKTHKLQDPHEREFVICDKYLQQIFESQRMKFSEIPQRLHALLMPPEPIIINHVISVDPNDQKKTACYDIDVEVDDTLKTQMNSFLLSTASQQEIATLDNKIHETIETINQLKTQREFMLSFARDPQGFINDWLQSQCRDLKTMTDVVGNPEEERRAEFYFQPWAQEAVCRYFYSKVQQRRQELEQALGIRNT
L12H was tested, and the “effect of a mutation on the interaction” value was “disrupting interaction strength”.

Variants of: B2
Conditions: with mmta2_human MMTAG2, Q9BU76
mmta2_human MMTAG2, Q9BU76, sequence (Q9BU76 whole entry): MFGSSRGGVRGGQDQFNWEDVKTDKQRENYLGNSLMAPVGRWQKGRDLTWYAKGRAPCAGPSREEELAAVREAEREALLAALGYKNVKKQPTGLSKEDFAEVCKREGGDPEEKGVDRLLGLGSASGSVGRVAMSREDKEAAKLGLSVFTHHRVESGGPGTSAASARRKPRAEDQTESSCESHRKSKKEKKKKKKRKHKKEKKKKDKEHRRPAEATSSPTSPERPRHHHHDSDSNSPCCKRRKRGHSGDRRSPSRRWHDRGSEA
L12H was tested, and the “effect of a mutation on the interaction” value was “disrupting interaction strength”.

Variants of: B2
Conditions: with tnnt1_human TNNT1, P13805
With L12H the “effect of a mutation on the interaction” value was “disrupting interaction strength”.

Variants of: B2
Conditions: with aebp2_human AEBP2, Q6ZN18
In the case of L12H, the “effect of a mutation on the interaction” value is reported as “with no effect”.

Variants of: B3
Conditions: with pr20e_human PRR20E
S59C was tested, and the “effect of a mutation on the interaction” value was “with no effect”.

Variants of: B3
Conditions: with rbpms_human RBPMS
S59C was tested, and the “effect of a mutation on the interaction” value was “with no effect”.

Variants of: B4
Conditions: with rbpms_human RBPMS
With V687I the “effect of a mutation on the interaction” value was “with no effect”.

Variants of: B4
Conditions: with amol2_human AMOTL2, Q9Y2J4
amol2_human AMOTL2, Q9Y2J4, sequence (Q9Y2J4 whole entry): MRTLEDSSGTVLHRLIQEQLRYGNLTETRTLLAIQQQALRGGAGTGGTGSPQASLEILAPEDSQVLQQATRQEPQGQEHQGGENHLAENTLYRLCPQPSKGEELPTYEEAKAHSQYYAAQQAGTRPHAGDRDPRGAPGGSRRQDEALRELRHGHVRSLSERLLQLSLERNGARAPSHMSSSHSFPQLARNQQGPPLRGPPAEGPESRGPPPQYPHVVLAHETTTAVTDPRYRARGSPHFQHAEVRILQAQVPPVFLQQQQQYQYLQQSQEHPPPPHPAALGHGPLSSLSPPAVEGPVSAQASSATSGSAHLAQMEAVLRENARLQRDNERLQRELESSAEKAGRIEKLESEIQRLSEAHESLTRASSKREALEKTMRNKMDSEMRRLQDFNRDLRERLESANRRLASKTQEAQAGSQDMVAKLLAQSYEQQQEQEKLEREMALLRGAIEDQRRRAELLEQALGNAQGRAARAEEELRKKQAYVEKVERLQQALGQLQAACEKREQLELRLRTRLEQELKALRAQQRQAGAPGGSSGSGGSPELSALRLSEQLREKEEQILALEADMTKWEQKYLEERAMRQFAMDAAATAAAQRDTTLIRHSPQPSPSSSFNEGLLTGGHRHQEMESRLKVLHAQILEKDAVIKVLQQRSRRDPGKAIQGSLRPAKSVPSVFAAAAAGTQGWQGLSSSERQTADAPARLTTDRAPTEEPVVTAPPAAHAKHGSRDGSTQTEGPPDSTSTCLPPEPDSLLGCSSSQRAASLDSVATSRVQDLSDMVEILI
In the case of V687I, the “effect of a mutation on the interaction” value is reported as “with no effect”.

Variants of: B4
Conditions: with mtus2_human MTUS2, Q5JR59
For V687I, the “effect of a mutation on the interaction” value was “with no effect”.

Variants of: B5
Conditions: with emil1_human EMILIN1, Q9Y6C2
With F127I the “effect of a mutation on the interaction” value was “with no effect”.

Variants of: B5
Conditions: with lnx1_human LNX1, Q8TBB1
In the case of F127I, the “effect of a mutation on the interaction” value is reported as “with no effect”.
